Test: yeast display, Sf9 membrane polyspecificity reagent, FACS + sequencing; frameworks hold sequencing errors
Method in brief: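 After 36–48 hours of galactose induction, yeast (Saccharomyces cerevisiae BJ5465) displaying a synthetic nanobody library were stained at 4 °C for 1 hour with 10% biotinylated, detergent-solubilized Sf9 membrane reagent. Streptavidin microbeads enriched the stained cells before FACS sorting into low and high (top ~1%) gates on anti-HA and streptavidin fluorescence. Each clone's polyreactivity label reflects its gate of origin.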

| Sequence | polyreactivity (PSR sort gate) |
| --- | --- |
| QVQLVESAGGLVQAGGSLRLSCAASGRTLSNYAMGWYREAPGKERELVAVISQSGGRTYYADSVKGRFTISRDNAKNTVYLQLNSLKPEDTAVYYCNVDISWLRRKFDYWGQVTQVTVSS | low polyreactivity |
| QVQLVESGGGLVQAGGSLRLSCAASGLIFSRYTMGWYRQAPGKERELVAAISKTGSSTYYADSVKGRFTISRDNAKNTVYLQMNSLIPEDTAVYYCAARAYPGYYWGQGTQVTVSS | high polyreactivity |
| QVQLVESGGGLVQAGGSLRLSCAASGSIFYAYAMGWSRQAPGKERELVATISSVGSTYYADSVKGRFTISRDNAKNTVYLQMNSLKPEDTAVYYCAKPRIVVYKTGYDYWGQGTQVTVSS | low polyreactivity |
| QVQLVESGGGLVQAGGSLRLSCAASGSIFVLNAMGWYRQAPGKERELVATITWRGGSTYYADSVKGRFTISRDNAKNTVYLQMNSLKPEDTAVYYCAKVDIRHHRFYYWGHGTQVTVSS | low polyreactivity |
| QVQLVESGGGLVKAGGSLRLSCAASGSTFGSNALGWYRQAPGKERELVAAISNSGGRTYYADSVKGRFTISRDNAKNTVYLQMNSLKPEDTAVYYCAVGSYRDGDYWGQGTQVTVSS | high polyreactivity |
| QVQLVESGGGLVQAGGSLSLSCAASGGTFSYYAMGWYRQAPGKGELVAAISSGGSTNYADSVKGRFTISRDNAINTAYLQMNSLKPEDTAVYYCADRYRFWGPYNYWGQGTQVTVSS | high polyreactivity |
| QVQLVESVGGLVQAGGSLRLSCAASGSTFKAYAVGWYRQAPGKEGELVAAITKSGGRTYYADSVKGRFTISLDNAKNTVYLQMNSLKPEDTAVYYCAAVFRPDSSAFRYYYWGQGTQVTVSS | high polyreactivity |
| QVQHVESGGGLVQAGGSLRLSCAASGSTFSQYAMGWYRQAPGKERELVAAITRGGRTYYADSVKGRFTISRDNAKNTVYLQMNSLKPEDTAVYYCAARGGYRLRYIPYVRYDYWGQGTQVTVSS | high polyreactivity |
| QVQLVESGGGLVQAGGSLRLSCAASGRIFPGNAMGWYRQSPGKERELVAGISFSGGRTYYADSVKGRFSISRDNAKNTVYLQMNSLKPEDTAVYYCATKYQQHWWRYDYWGQGTQVTVSS | low polyreactivity |
| QVQLVESGGGLVQAGGTLRLSCPASGRNILGYAMGWYRPAPGKERELVAALRRSGGHTFYADSVKGRFTISRDNAKNRVYFQMNSLKPEDTAVYYCAASTSGAIRRDGFWGQGTQVSVSS | low polyreactivity |
| QVQLVESGGCLVQAGGSLSLSCAASGSIFGWYVMGWYRQAPGKERELGAAISSVGSTYYADSVKGRFTISRDNAKNTVYLQMNSLKPEDTAVYYCAKLRYPYLFSDDSEYWGQGTQVTVSS | low polyreactivity |
| QVQLVESGGGLVQAGGSLPLSCAASGRTFWDNAMGWYRQAPGKERELVATITSGDSTNYADSVKWRFTISRDNAKNTVYLQMNSLKPEDTAVYDCARVIVFDAYEFDYWGQGTQVTVSS | low polyreactivity |
| QVQLVESGGGLVQAGGSLRLSCAASGSIFGRYTMGWYRQAPGKERELVAAINRSGGSTSYADSVKGRFTISRDNAKNTVYLQMNSLKPEDTAVYYCNRARSVPQFYGTYGFGYDYWGQGTQVTVSS | low polyreactivity |
| QVHLVESGGGLVQAGGSLRLSCAASGSIFPFNAMGWYRQAPGKERELVAAIRWSDGRTYYADSVKGRFTISRDNAKNTVYLQMNSLKPEDTAVYYCAAKSYWGQGTQVTVSS | high polyreactivity |
| QVQLVESGGGLVQAGGSLRLSCAASGSTFDVYAMGWYRQAPGKERELVAVINTSGTRTYYADSVKGRFTISRDNAKNTVYLQMNSLKPEDTAVYYCNAGGHLEMNYWGLGTQVTVSS | low polyreactivity |
| QVQLVESGGGLVQAGGSLRLSCAASGRIVKYAMGWYRQAPGKERELVAAISGSGGTTYYADSVKGRFTISRDNAKNTVYLQMNSLKPEDTAVYYCAASRPRPPSSRRMDYWGQGTQVTVSS | high polyreactivity |
| QVQLVESGGGLVQAGGSLRLSCAASGGILTKYAMGWYRQAPGKEREFVAAISWRGGTTYYADSVKGRFTISRDNAKNTVYLQMNSLKPEDSAVYYCAADILWYFGQEYDYWGKGTQVTVSS | low polyreactivity |
| QVQLVESGGGLVQAGGSLRLSCAASGRTFHKYAMGWLRQAPGKERELVAAITGSGVRTYYADSVKGRFTISRDNAKNTVYLQMNSLKPEDTAVYYCNADSYNRNGDYWGQGTQVTVSS | high polyreactivity |
| QVQLVESGGGLVQAGGSLRLSCAASGFIFRAYAMGWYRQAPGKERELVAAISWRGTSTYYADSVKGRFTISRDNAKNTVYLQMNSLKPEDTAVYYCARRRYLPFSRSQGSEDYWGQGTQVTVSS | high polyreactivity |
| QVQLVESGGGLVQAGGSLRLSCAASGSIFDYNPMGWYTQAPGKERELVADITSGGSTYYADSVKGRFTISRDNAKNTVYLQMNSLKPEDTAVYYCNADDAVEYSYGGGTEFYYWGQGTQVSVSS | low polyreactivity |
| QVQLVESGGGLVQAGGRLRLSCAASGSIFERNVMGWYRQAPGKERELVAAITSGGSTNYADSVKGRFTISRDNAKNTVYLQMNSLKPEETAVYYCAADVPYRSRFYRYRLSGGDYWGQGSQVTVSS | low polyreactivity |
| QVQLVESGGGLVQAGGSLRLSCAASGSIFDLYAMGWYRQAPGKERELVAGISYSGGSTYYADSVKGRFTISRDNAKNTVYLQMNSLKPEDTAVYHCADDGGWRYHPFSSLFDYWGQGTQVTVSS | low polyreactivity |

| Sequence | polyreactivity (PSR sort gate) |
| --- | --- |
| QVQLVESGGGLVQAGGSLRLSCAASGRIIAKYAMGWYRQAPGKERELVAAINWGGGSTYYADSVKGRFTISRDNAKITVYLQMNSLKPEDTAVYYCNRTPRSKGNYWGQGTQVTVSS | high polyreactivity |
| QVQLVESGGGLVQAGGSLRLSCAASGITFSLYAMGWYRQAPGKERELVAAISKSGGSTYYADSVKGRFTISRDNAKNTVYLQMNSLKPEDTAVYYCAADFVSKTPWHAQDDYWGQGTQVTVSS | low polyreactivity |
| QVQLVESGGGLLQAGGSLRLIWAASGIIFVKNSMGWYRQAPGKERELVAAITVSGSRTYYADSVKGRFTISRDNAKNTVYLQMNSLKPEDTAVYYCNAYPYYRGRNMDSWGQGTQVTVSS | high polyreactivity |
| QDQHVESGGGLLQAGGSLRLTCAAYGSIFTDYAMGWYRQPPGKERELVAAITRIGTRTYYADSVKGRFTISRDNAKNTVYLQMNSLKPEDTAVYYCAASGYSPVRWVWLYYWGQGTQVTVSS | high polyreactivity |
| QVQLVESGGGLVQAGGSLRLSCAASGSTFPKYAMGWYRQAPGKERELVAAITFTGSSTYYADSVKGRFTISRDNAKNTVYLQMNSLKPEDTAVYYCNAVYYTGYYWGQGTQVTVSS | low polyreactivity |
| QVQLVESGGGLVQAGGSLRLSCAASGFIFWLYAMGWYRQAPGKEREVVAGITRGGGSTYYADSVKGRFTISRDNAKNTVYLQMNSLKPEDTAVYYCAADAWSSYLDRPFDYWGQGTQVTVSS | high polyreactivity |
| QVQLVESGGGLVQAGGSLRLSCAASGRTFDVYAMGWYRPAPGKERELVATIRSDGSTTYADSVKGRFTISRDNAKNTDYLQLNSLKPEDTAVYYCAAERVGVFFRYDYWGQGTQVTVSS | low polyreactivity |
| QVQLVESGGCLVQAGGSLRLSCAASGRTFPYNVMGWYRQAPGKERELDAGITGSGDSTFYADSVKGRFTISRDNAKNTFYLQMNSLNPDDTSVYYCAARYRTLNDGYIRNYWGQGTQVTVSS | low polyreactivity |
| QVQLVESGGGLVQAGGSLRLSCAASGLTFAGNAMGWYRQAPGKEREFVATITWSDGSTRYADSVKGRFTISRDNAKNTVYLQMNSLKPEDTAVYYCNTQYPDYFYEFNYWGQGTQVTVSS | low polyreactivity |
| QVQLVESGGGLVQAGGSLRLICAASGRSFNLYAMGWYRQAPGKERELVAAISYSGGRTYSADSVKGRFTISRDNAKNTVYLQMNSLKPEDTAVYYCNTVRGSVRQAGVGYEYWGQGTQVTVSS | high polyreactivity |
| QVQLVESGGGLVQAGGSLRLSCAASGRTFYRYVMGWYRQAPGKERELVATITNGGSTNYADSVKGRFTISRYNAKNTVYLQMNSLKPEDTAVYYCAADYPGYVGWPYSYEYYYWGQCTQVTVSS | low polyreactivity |
| QVQLVESVGGLVQAGGSLRLSCAASGSTFYRYAMGWYRQAPGKERELVAAISSDGTTYYADSVKGRFTISRDNAKNTVYLQLNSLKPEDTAVYYCAKRGYYRSRRYDYWGQGTLVTVSS | high polyreactivity |
| QVQLVESGGGLVQAGGSLRLSCAASGSIFGSNAMGWYRQAPGKERELVAANSKSGGSTYYADSVKGRFTISRDNAKITVYLQMNSLKPEDTAVYYCNARWWVVTFYGRYEGDYWGQGTQVTVSS | low polyreactivity |
| QVQRVESGGGLVQAVGRLRLSCAASGSTFYTYTMGWYRPARGKERELVAAITWSGGSTYYADSVKGRFTISRDNAKNTVYLQMNRLKPEDTAVYYCNADQDYQGARPSGMDYWGLGTQVTVSS | low polyreactivity |
| QVQLVESGGGLVQAGGSLRLSCAASGRTFSHNTMGWYRQAPGKERELVAAITGSGASTYYADSVKGRFTISRDNAKNTVYLQMNSLKPEDTAVYYCAKVSRQSWYEYDSWGQVTQVTVSS | low polyreactivity |
| QVQLVESGGGLVQAGGSLRLSCAASGLIFYHNTMGWYRQAPGKEREFVASITQSGGSTYYADSVKGRFTISRDNAKNTVYLQMNSLKPEDTAVYYCAKRLRPGGYWYDYWGQGTQVTVSS | high polyreactivity |
| QDQLVESGGGLVQAGGSLRLSCAASGRTFAYNAMVWYRQAPGKERELVADITSGGSTYYADSVKGRFTISRDNPKNTVNLQMNSLKPEDTAVYDCADVRQGSFTTMDYWGQGTQVTVSS | high polyreactivity |
| QVQLVESGGGLVQAGCSLRLSCAASGIIFALNAMGWYRQAPGKERELVAAISDGDSTHYADSVKGRFTISRDNAKNTVYLQMNSLKPEDTAVYYCAVDNRDLFFYPGGFDYWGQGTQVTVSS | low polyreactivity |
| QVQLVESGGGLVQAGGSLRLSCAASGFILPNYTMGWYRQAPGKERELVAAISRGGSTNYADSVKGRFTISRDNAKNTVYLQMNSLKPEDTAVYYCAVDAWTGESYWEHYYWGQGTQVTVSS | low polyreactivity |
| QVQLVESGGGLVQAGGSLRLSCAASGITLRYYTMGWYRQPPGKERELVADISYRGGSTTYADSVKGRFTISRDNAKNTVYLQMNSLKPEDTAVYYCNARKRTFPSRSIGGDYWGQGTQVTVSS | high polyreactivity |
| QVQLVESGGGLVQAGGSLRLSCAASGNTFSLYAMGWYRQAPGKERELVAAITWITGSTDYADSVKGRFTISRDNAKNTVYLQMNSLKPEDTAVYYCAADGDFSWFYSYETGWIEYDYWGQGTQVTVSS | low polyreactivity |
